From patent EP2747783B1

Experiments:
[1] = biological target: human c-Met, cell membrane expressed (A549, BxPC-3, myeloma cells) (human) (UniProt P08581); assay: cell-based or functional assay
[2] = biological target: human c-Met, cell membrane expressed (A549, BxPC-3, myeloma cells) (human) (UniProt P08581); assay: flow cytometry; competition with 1 nM biotinylated hHGF on A549 cells
[3] = biological target: cynomolgus c-Met expressed on BAF3 cells (cynomolgus monkey); assay: flow cytometry; competition with 0.5 nM biotinylated HGF on BAF3 cells with cynomolgus c-Met
cynomolgus c-Met expressed on BAF3 cells (cynomolgus monkey), sequence (A0M8R7 25-1381 S170N/I621T limits assumed, form in doubt): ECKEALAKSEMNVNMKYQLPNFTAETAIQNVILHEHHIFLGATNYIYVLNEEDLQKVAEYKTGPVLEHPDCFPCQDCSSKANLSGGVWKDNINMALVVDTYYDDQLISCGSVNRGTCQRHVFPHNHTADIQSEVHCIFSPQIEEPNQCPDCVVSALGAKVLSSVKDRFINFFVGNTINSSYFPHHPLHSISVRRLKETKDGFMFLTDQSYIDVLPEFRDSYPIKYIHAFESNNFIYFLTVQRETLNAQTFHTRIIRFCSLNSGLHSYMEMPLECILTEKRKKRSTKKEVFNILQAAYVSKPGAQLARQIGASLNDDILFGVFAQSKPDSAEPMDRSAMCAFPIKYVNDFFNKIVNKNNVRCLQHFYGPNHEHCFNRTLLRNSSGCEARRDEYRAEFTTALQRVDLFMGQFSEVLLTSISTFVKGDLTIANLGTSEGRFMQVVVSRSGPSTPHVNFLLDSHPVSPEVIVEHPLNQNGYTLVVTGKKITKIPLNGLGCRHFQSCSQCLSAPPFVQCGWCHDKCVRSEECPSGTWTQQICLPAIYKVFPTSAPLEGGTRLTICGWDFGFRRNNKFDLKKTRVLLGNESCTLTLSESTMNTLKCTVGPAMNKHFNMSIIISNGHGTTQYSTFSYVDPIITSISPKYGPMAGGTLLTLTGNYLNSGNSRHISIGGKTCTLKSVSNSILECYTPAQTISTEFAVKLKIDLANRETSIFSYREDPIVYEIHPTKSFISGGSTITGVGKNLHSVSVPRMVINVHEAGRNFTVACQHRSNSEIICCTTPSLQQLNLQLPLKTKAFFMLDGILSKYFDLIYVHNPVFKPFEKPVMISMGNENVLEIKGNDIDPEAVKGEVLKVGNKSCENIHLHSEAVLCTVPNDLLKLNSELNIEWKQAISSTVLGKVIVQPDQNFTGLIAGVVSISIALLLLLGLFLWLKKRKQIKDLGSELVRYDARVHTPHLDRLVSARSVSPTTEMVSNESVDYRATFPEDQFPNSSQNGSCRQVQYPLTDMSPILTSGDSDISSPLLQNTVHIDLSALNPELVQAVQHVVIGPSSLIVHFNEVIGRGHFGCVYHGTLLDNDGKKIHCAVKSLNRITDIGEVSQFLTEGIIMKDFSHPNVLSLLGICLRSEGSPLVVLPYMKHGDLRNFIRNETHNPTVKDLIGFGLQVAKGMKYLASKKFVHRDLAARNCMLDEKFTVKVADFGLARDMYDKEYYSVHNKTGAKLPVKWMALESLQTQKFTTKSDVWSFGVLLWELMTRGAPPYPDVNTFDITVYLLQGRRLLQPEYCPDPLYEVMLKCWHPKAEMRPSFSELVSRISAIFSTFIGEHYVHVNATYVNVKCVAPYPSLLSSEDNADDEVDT

human c-Met, cell membrane expressed (A549, BxPC-3, myeloma cells) (human), sequence (P08581 25-1390 limits assumed, form in doubt): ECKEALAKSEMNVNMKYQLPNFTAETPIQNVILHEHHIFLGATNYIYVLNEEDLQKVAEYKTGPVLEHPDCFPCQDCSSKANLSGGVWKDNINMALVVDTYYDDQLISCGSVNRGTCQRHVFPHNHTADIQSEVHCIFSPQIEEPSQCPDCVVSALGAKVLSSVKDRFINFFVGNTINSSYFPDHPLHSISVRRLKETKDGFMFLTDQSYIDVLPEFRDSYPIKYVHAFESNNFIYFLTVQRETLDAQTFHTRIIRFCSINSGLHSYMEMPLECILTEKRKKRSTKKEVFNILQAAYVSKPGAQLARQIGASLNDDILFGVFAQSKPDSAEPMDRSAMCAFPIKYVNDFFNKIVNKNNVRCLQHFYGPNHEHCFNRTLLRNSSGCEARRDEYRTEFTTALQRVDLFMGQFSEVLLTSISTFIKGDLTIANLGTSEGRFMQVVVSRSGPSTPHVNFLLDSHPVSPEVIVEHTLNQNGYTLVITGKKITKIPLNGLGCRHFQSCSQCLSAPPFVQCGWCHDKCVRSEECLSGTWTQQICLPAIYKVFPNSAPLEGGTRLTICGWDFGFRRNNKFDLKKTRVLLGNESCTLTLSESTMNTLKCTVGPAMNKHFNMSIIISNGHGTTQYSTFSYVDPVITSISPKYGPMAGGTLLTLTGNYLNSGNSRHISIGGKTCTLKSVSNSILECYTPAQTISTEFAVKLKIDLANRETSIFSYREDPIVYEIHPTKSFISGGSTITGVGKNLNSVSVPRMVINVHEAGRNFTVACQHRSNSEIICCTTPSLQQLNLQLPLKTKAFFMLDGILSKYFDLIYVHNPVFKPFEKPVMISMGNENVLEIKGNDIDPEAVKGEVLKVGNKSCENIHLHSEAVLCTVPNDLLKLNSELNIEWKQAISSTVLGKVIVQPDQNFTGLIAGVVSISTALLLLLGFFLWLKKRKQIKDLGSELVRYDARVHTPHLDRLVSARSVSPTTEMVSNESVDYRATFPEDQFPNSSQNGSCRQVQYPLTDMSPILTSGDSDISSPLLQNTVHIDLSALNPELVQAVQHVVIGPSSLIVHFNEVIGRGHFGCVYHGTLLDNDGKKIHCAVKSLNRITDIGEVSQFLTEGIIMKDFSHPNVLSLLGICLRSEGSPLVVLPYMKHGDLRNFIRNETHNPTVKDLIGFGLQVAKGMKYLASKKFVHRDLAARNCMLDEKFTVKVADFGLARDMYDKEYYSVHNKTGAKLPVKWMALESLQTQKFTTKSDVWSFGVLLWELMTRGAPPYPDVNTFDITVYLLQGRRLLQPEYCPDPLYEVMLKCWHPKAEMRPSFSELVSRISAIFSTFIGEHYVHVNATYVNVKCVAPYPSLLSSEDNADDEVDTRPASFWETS

Substance	% inhibition, HGF-dependent A549 cell migration [1]	% inhibition, HGF-dependent c-Met phosphorylation, Experiment 1 [1]	% inhibition, HGF-dependent c-Met phosphorylation, Experiment 2 [1]	% inhibition, HGF-dependent proliferation of BxPC3 cells [1]	IC50, HGF-dependent c-Met phosphorylation, experiment 1 [1]	IC50, HGF-dependent c-Met phosphorylation, experiment 2 [1]	IC50 ratio to 5D5 Fab, HGF-dependent A549 cell migration [1]	IC50 ratio to 5D5 Fab, HGF-dependent c-Met phosphorylation, Experiment 1 [1]	IC50 ratio to 5D5 Fab, HGF-dependent c-Met phosphorylation, Experiment 2 [1]	IC50 ratio to 5D5 Fab, HGF-dependent proliferation of BxPC3 cells [1]	c-Met phosphorylation without HGF (agonistic activity), A549 cells [1]	% inhibition [2]	% inhibition [3]
anti-c-Met antibody fragment 5D5 Fab from mAb	112%	96.4%	95.9%	94.8%	10.4 nM	9.09 nM	1	1	1	1			
anti-c-Met antibody 5D5											37 nM	100%	100%
